Among the data in article PMC9728185 are stoichiometry N values, retold here.

Several values for one entry are separate records, joined by “and”; a condition that tells them apart may be missing. Equal entries are not always repeated.

In the assay the target is Glycerol dehydrogenase from Klebsiella pneumoniae (encoded by gldA, strain MGH78578) (Klebsiella pneumoniae strain MGH78578). Nature of the assay: SEC; analytical Superdex-200 10/300 GL, 20 mM Tris-HCl, 0.1 mM TCEP, 200 mM NaCl, pH 8.0, 0.5 ml/min; 200 ul of purified KpGlyDH at 4.94 mg/ml; masses from a standard curve of reference proteins; octamer and hexadecamer in equilibrium. On the technique in general: Size exclusion chromatography separates by hydrodynamic size, large species first.

With “Glycerol dehydrogenase from Klebsiella pneumoniae (encoded by gldA, strain MGH78578) (enzyme)”, the stoichiometry N (as a rule, the number of molecules, sites or subunits per partner or assembly) was 8 and 16.
